Paper PMC11866011

How the values were obtained:
[1] = target: EncA-157ST (Myxococcus xanthus encapsulin shell protein EncA with the SpyTag peptide inserted between residues 157 and 158) (Myxococcus xanthus | Streptococcus pyogenes) (UniProt Q1D6H4); assay: negative-stain TEM; purified empty (unloaded) nanocompartments, 0.01-0.03 mg/mL, uranyl acetate 0.5% stain; subunit number read from the particle diameter
[2] = target: EncA-157ST (Myxococcus xanthus encapsulin shell protein EncA with the SpyTag peptide inserted between residues 157 and 158) (Myxococcus xanthus | Streptococcus pyogenes) (UniProt Q1D6H4); assay: negative-stain TEM; purified nanocompartments loaded with sfGFP-CLP (coexpressed), 0.01-0.03 mg/mL, uranyl acetate 0.5% stain; subunit number read from the particle diameter
[3] = target: EncA-ST (Myxococcus xanthus encapsulin shell protein EncA with the SpyTag peptide fused to its C-terminus) (Myxococcus xanthus | Streptococcus pyogenes); assay: negative-stain TEM; purified empty (unloaded) nanocompartments, 0.01-0.03 mg/mL, uranyl acetate 0.5% stain; subunit number read from the particle diameter
[4] = target: EncA-ST (Myxococcus xanthus encapsulin shell protein EncA with the SpyTag peptide fused to its C-terminus) (Myxococcus xanthus | Streptococcus pyogenes); assay: negative-stain TEM; purified nanocompartments loaded with sfGFP-CLP (coexpressed), 0.01-0.03 mg/mL, uranyl acetate 0.5% stain; subunit number read from the particle diameter

With “EncA-157ST (Myxococcus xanthus encapsulin shell protein EncA with the SpyTag peptide inserted between residues 157 and 158) (from UniProt Q1D6H4 1-157; Q1D6H4 158-287)” the stoichiometry N [1] was 60 subunits and the stoichiometry N [2] was 180 subunits.
For “EncA-ST (Myxococcus xanthus encapsulin shell protein EncA with the SpyTag peptide fused to its C-terminus)”, the stoichiometry N [3] was 60 subunits and the stoichiometry N [4] was 180 subunits.
